Among the data in a protein production outcome set (Wang et al. 2014) are protein production values, retold here.

The data set is described as follows: label from the status in PepcDB records.
Regarding “HRYIPTLFFHGWGSSYHAETHMADAIVKAGKTQTIVRAMVAKNGTVTLKGHFRSGDYRPIVEVNFANNRSSDYPTVGRWAKNVVVALQRTYGITSFNMVGHSMGNMAITYYLLANAQNKRLPQLRQQVAIAGHFNGILGMDDSPNQMTLNAAGRPNKLRPAYRQLLGLRRVYPRQQVRVLNIYGDKGDGTHSDGSVSNASSRSLRYLVAARARSYREVKLTGKHAQHSQLHENAQVDRLLIDFLWPTH”, the protein production entry is listed as “not failed”. Regarding “HSEPSHQSKAVVELPHKQGMARLAAGLLHPDMTIYLDAGTSTLEIVPHIIALSGMTVVTNDFGVVNALADAAHVDVIHTGGLLDHPNRSSVGGLAAATLRQLATDVAFMSTSSWDLQRGTTTPSALKVEVKQAAMQSASQTVLVATSSKY”, the protein production result was “failed”. Take “HTYKSLFVAPCDAGVKSIKDLKGKSVAFVDPASTSGGLMPTYMVKKETGMMPQQFFGKFTYSGSHDAAELAVKNKTVDAAADNDITYEKMLAKGLITKETNCVVKESDPLPGSPLVYRKDLPAATKKKIRDAILNAH”: the protein production entry is reported as “failed”. As for “IDKKLTTLADLFRPPIDLMHKGSFETAKECGQMQNKWLMINIQNVQDFACQCLNRDVWSNEAVKNIIREHFIFWQVYHDSEEGQRYIQFYKLGDFPYVSILDPRTGQKLVEWHQLDVSSFLDQVTGFLGEHGQLDGLSSS”, the protein production result was “not failed”. The value for “IDPVMVAAFEGWNDAGDAASTAVAHLDREWKGEVFAALDAEDYYDFQVNRPTVWLDGGVRKITWPTTRLSVVRVGGEKPRDLVLVRGIEPSMRWRSFCNELLAFAHELGVELVVVLGALLGDTPHTRPVPVSGVTSDPDLARTMDLEETKYEGPTGIVGILQEACTHAGVPAVSLWAAVPHYVSQPPNPKATLALLNRLEDLIDVRIPLGELPEDARAWQVGVDQLAAEDSEVAEYVQSLEEARDTA” was “not failed”. In the case of “IDRSTHFALRYRTLCHQQAQFKSPLRGLRGTRASLIPHQLHIAAEVGNRVNPRVLLADEVGLGKTIEAGMILQNQLFAEKVQRVLIIVPETLQHQWLVEMLRRFNLHFALFDEERCNDFDLDAVNPFTTESLIICSLNWLETHPNRVELVLNAQFDCLIVDEAHHLVWSETSPSTAYLLVEQLARIIPSVLLLTATPE”, the protein production entry is given as “failed”. As for “IEEVYEATLDAIQGALNCDRASILLFDEAGTMRFVAARGLSEHYQRAVDGHSPWITGANEPEPIFVENVDDAEFSRELKESIVGEGIAALGFFPLVTEGRLIGKFMTYYDRPHRFADSEIGMALTIARQLGFSIQRMRAEYARRQAEE”, the protein production result is “not failed”. On to “IEPEYFGEDAAENILIGWGSLEGAIKEAVNDLNKEGKEKYAALIFGDVWPLPEKLLREKASKAKTLIDVEQNAQGQLADIIREGTGIEVDKKILKYDGRPIMASYIVGRIKE”, for which the protein production result is reported as “not failed”. The value for “IESASDMIAAFGKDQRFITFNEAYQREFKRLFDKSISINMSLEEAFNNAPENKKKLVQSWKESLQRDEETKNIEVNTEQEKTIYEMTSKLIQNGDNEIKGVVHSVRNIT” was “failed”. As to “IEVSYHTPDGVPGVVMTTPKLDDGTPFPTLYYLTEPRLTAEASRLEVAHVMKWMTDRLHSDEELRQDYERAHEYFLAKRNALEDLGTDFSGGGMPDRVKCLHVLIAYALAEGPDHFRLGTEAVALA”, the protein production result is listed as “failed”. In the case of “IGPSSSHTMGPMTAANVFRDHVDQLVSQTPDDLNYRVYCVLKGSLAFTGRGHATDRAVALGLHGHSPVSLAGEDVNALTAKLWATDTLQLTSGREIGFNPEDDIVFDKSDPLPQHPNGMIFYLLDEEGKKILSETFFSIGGGFICTLAEINQ”, the protein production entry is on record as “not failed”. As to “IKATYETFSSPNGHGEGRGYLVMPQKKTIKSPTVLVIHENRGLNPYIKDVARRLAKDGFIAFAPDALYPLGGYPGNDDEGRAMQKEMDRAKIEQDFIAAAKFIKQHEHGNGKLGAVGFCFGGYVVNMLAAVMPNELDAGVPFYGTPAAEEIQKQVKGPLMLHFAGLDKRVNDTWPSYEQQLIASGAKYQALMYENVNHGFHNDSTARYAPEEAALAWERTLAFFKEHL”, the protein production result is recorded as “failed”. On to “IKAVFDPDNRLNPGKICPPEGIDAPMMKVDAAKRGTWDRQIPIAVRSSWRGAMECNGNGLCFNFDVKSPMCPSMKVSNQRIHSPKGRATLVREWLRLLADRGVDPNQLEKALPEQGVSLRSLVARTRNSWHARKGEYDFSHEVKEAMSGCLACKACSTQCPIKIDVPEFRSRFLQLYHSRYLRPVRD”, for which the protein production result was “failed”. On to “IKKNVFNIFYLFLVLEELKGPVLYIVGTPIGNLEDITYRAIDVLKSVNVIFAEDTRVTSKLLSRYKINKKMISCNAVTENKKISLLLDYLAKGNSVAFVSDAGTPGLSDPGSLLVAAAFREGYKVCPIPGV”, for which the protein production result was “failed”. On to “ILIQINPLDNVAIVVNDHGLEKQTVIEEYQLTLVDDVPQGHKVLLKALKKDEAIIRYGEIIGYANADLEAGRWVNESVTRMPEA”, for which the protein production result is “failed”. The value for “IMDQDGRSMFADGSKVPFERTRLLLQRLAVPLRATPLRVTIVGHTSSGLMPERSDYNGWDLSSDRANSVRQILEREGLPGSHIFAVTGKADSQPLFPDDPSIAANRRVTITLMRESPALP” was “failed”; that for “INRRRDSKQMTEHNLSVVNTATLYIVPTPIGNLGDITQRAIEVLKSVDLIAAEDTRHTGKLLSHFGIASQTFALHDHNEQHKADLLISKLQQGLSIALVSDAGTPLISDPGYHLVNRCRQANVNVVPLPGA” was “failed”; that for “IPGPGFTAGAQGSCSLRCGAQDGLCSCHPTCSGLGTCCEDFLDYCLEILPSSGSMMGGKDFVVQHLKWTDP” was “not failed”.

For “IQNVLSYITEHFSEGMSLKTLGNDFHINAVYLGQLFQKEMGEHFTDYLNRYRVNYAKEELLQTKDNLTIIAGKSGYTDMAYFYRQFKKHTGETPNRYRKIHQ”, the protein production result is given as “failed”. As for “IRQRKRAERALNDQLEFMRVLIDGTPNPIYVRDKEGRMLLCNDAYLDTFGVTADAVLGKTIPEANVVGDPALAREMHEFLLTRMAAEREPRFEDRDVTLHGRTRHVYQWTVPYGDSLGELKGIIGGWIDIT”, the protein production entry is “failed”. For “IRSIWENNGFGLMSSKTMTDFDYWISDFEKIGASQKEAEQLIVKAIEIAIDANARNYNYINAILKDWEQRGFKSVEEREAARKQKKTTKKQKSNTGHSDYDDLGF”, the protein production result is reported as “not failed”. “IRTHLNLPSDKKVIMYAPTWRDDEFVSKGKYLFELKIDLDNLYKELGDDYVILLRMHYLISNALDLSGYENFAIDVSNYNDVSELFLISDCLITDYSSVMFDYGILKRPQFFFAYDIDKYDKGLRGFYMNYMEDLPGPIYTEPYGLAKELKNLDKVQQQYQEKIDAFYDRFCSVDNGKASQYIGDLIHKDIKEQ”: the protein production result is “failed”. With “ISCSDPNPLDSYTRVPFEKTETDDGNGDGDGDGAGGLFEKGNGTDSKPYMIMNATQIRNMRSVLKSGMKVYFQLGADIDMAGIDDWQSLNGSGDFPYEIDFDGDSHVIKNFKCSAGDYPSFFGVLCGDCRNVGFVNASVSSARQGIGIITGYLGLKDKGNGNKTGRIVNCYTTGEVIGSGAAGGIAGVLANSYDGQESYIKNCYSNATVSDRAASGGKAGGIAGRKVGVGGFIENCYAYGAVSATKGGVGGILGQIDKSCDIAIKNSAAWSNLTGVDASSTVGRIVGVSASLGSYENCYACESIVLKVNEKTITASDESSATGTTFHGVAKSAEELGNIIVAWNPNLWKKGTNGYPIFQWSE”, the protein production result was “not failed”. In the case of “ISRRNQDMLLSVLDLEKMTVDDIMVPRSEIIGIDINDDWKSILRQLSHSPHGRIVLYRDSLDDAISMLRVREAWRLMSEKKEFTKETMLRAADEIYFVPEGTPLSTQLVKFQRNKKKVGLVVNEYGDIQGLVTVEDILEEIVGDFTTSMS”, the protein production entry was “not failed”.

As for “ISTVSGKVERLISFDIAKRWYLRDIAERMYTSESLIKKKLQDENTCFSKILLASRMSMARRLLELRQIPLHTIAEKCGYSSTSYFINTFRQYYGVTPHQFAQHSPGT”, the protein production entry was “failed”. Take “IYGLVQRCVIIQKDDNGFGLTVSGDNPVFVQSVKEDGAAMRAGVQTGDRIIKVNGTLVTHSNHLEVVKLIKSGSYVALTVQGRPPGSPQIPLADSEVEPSVIGHMSPIMTSPHSPGASGNMERITSPVLMGEENNVVHNQK”: the protein production result is “failed”. Take “KAPNLYMTDTTGTYRYLYDVQAKYTILFFWDSQCGHCQQETPKLYDWWLKNRAKGIQVYAANIERKDEEWLKFIRSKKIGGWLNVRDSKNHTDFKITYDIYATPVLYVLDKNKVIIAKRIGYENLDDFLVQYEKSLKTK”: the protein production entry is listed as “not failed”. Take “KDADHIHHLIDQSLIAKGFQEILTNSLTKGAYNELLSKQEDAVPILNKLSEELAFMRPSLAFTGLETVAYNINRRQKNLKLFEWGKVYFKRGTKYNEYNRLSVFITGNQHAESWNTPSKTVDFFDMKAVVVQILEKLHIAVTQVQEIESNPLFSKGVIYKHAGKELVQFGYISQAALKATDVKQEVLFADFNADLLLELYSNKSKYKEIS”: the protein production result is “not failed”. The value for “KEAGSQIMKFEVQDASPTIATELNLVTGEQVYYIKRLRFIEDNAAQLEETWMSVARFPDLTVSHMQKSKFSYIENECGIKIIGTFETFSPTFPTPEIASILRISPRDPILKIQTQAVDSNSIPLDYSLLYSN” was “failed”. As to “KEALEALVPVTIEVEVPFDLHRYVIGQKGSGIRKMMDEFEVNIHVPAPELQSDIIAITGLAANLDRAKAGLLERVKELQAEQEDRALRSFK”, the protein production result was “not failed”. “KESLQVTLYRDNHAWCPYCQKVWLWLEEKQIPYRIKKVTMFCYGEKEDWYKKLVPSGMLPALELDGRFYTESDDILIALEKAFGPLLWAMEDPLVLPLRKLERLLFRAWCNWLCYPAM”: the protein production entry is reported as “failed”.

“KGKSFIWIKRQLDPKVAEEVKALGLENFVFEKELKRHYPMGNLFAHVIGFTDIDGKGQEGLELSLEDSLYGEDGAEVVLRDRQGNIVDSLDSPRNKAPQNGKDIILSLD”: the protein production result was “failed”. Take “KGLDKWGIYVPESAAQSVKDAVFEAGAGAIGDYSQCSFEWQGTGQFLPHHNAQPVVGHPGQLERTEELRVEFVAPARLRTTLIDAIRAAHPYEEPAFDVVSMQSTQDLETAEGLGRVGTLPEPMRFGDFVQQVADALPETSWGIRAAGDPEQMVHTVAVSSGSGDSFLDAVAALGVDVYVTSDLRHHPADESRRAQGPLLIDTAHWASEFPWTYQVQELLAQEFAQLDVEVATLRTDPWNISAHPQLR”: the protein production result is “not failed”.

For the sequence “KHLSLTPELYKYLLDISLREHPALAALRKETSTMELANMQVAPEQAQFMQMLIRLTRAKKVLELGTFTGYSALAMSLALPDDGQVITCDINEGWTKHAHPYWREAKQEHKIKLRLGPALDTLHSLLNEGGEHQFDFIFIDADKTNYLNYYELALKLVTPKGLIAIDNIFWDGKVIDPNDTSGQTREIKKLNQVIKNDSRVFVSLLAIADGMFLVQPI”, the protein production result was “not failed”.

Regarding “KIRSYTSIWSVEKVLYSINDFRLPFPITFTQMTWFVVSLFAVMILGNVPPLSMIEGAFLKYFGIPVAFTWFMSTKTFDGKKPYGFLKSVIAYALRPKLTYAGKKVTLGRNQPQEAITAVRSEFY”, the protein production result is listed as “failed”.
